This note sets out measurements from patent US20140086835A1 (UNIVERSITY OF NORTH CAROLINA AT CHAPEL HILL, published 2014).

This assay deals with T1, recombinant human PSMA (extracellular domain) (human, UniProt Q04609 44-750).
T1 construct: extracellular domain; Bought (R&D Systems); Amine-coupled to a CM5 chip; also called prostate specific membrane antigen
The experiment in a line: SPR (BIAcore 2000), PSMA on CM5 chip, 1:1 Langmuir fit. Background: Surface plasmon resonance follows binding to a sensor surface in real time, without labels.

T1 sequence (Q04609 44-750): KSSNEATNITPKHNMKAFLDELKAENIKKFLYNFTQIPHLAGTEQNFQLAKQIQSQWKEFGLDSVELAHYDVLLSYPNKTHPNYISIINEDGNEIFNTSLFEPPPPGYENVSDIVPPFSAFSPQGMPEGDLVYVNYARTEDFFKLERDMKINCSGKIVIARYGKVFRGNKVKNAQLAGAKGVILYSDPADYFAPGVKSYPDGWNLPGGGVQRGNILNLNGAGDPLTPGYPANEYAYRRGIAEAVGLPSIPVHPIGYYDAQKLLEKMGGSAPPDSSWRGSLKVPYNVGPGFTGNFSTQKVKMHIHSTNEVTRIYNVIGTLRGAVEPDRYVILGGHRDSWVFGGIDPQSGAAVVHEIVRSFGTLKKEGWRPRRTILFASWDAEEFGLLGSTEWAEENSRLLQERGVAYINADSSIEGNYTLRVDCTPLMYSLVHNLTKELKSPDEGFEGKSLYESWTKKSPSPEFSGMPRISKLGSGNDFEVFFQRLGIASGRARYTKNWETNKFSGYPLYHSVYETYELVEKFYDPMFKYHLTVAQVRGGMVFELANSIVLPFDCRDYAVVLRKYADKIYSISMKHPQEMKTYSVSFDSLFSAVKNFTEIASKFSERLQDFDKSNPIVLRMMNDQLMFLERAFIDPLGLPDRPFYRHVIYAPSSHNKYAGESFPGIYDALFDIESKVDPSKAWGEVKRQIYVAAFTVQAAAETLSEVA

B1: heptameric PSMA-binding peptide targeting ligand (designed binder)
chain: MWQPDTAHHWATLGPQPQPKPQPKPEPEPQPQGGMPPRPLDVLNRSLKSPVIVRLKGGREFRGTLDGYDIHMNLVLLDAEEIQNGEVVRKVGSVVIRGDTVVFVSPAPGGEHHHHHH
notes: Self-assembled homoheptamer; also called PSMA-Heptamer; P^PSMA heptamer
For the molecule B1, the Kd came to 20 nM and the koff turned out to be 1.09e-06 s⁻¹.

As a reminder, the Kd is the constant that tells how readily two partners part at equilibrium. In general, koff refers to the first-order rate constant of dissociation.
